# Experimental data reported in article doi:10.1101/2025.06.13.659497.
# Biological target: biotinylated recombinant bovine serum albumin with N-terminal Avi tag (rBSA-Bt) (Bos taurus)
# Assay: SPR
# streptavidin, sequence (P22629 25-183): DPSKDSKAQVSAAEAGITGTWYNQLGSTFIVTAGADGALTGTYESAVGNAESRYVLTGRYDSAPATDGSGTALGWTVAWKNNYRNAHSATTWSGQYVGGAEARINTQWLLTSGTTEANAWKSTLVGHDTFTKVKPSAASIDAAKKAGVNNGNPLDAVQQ
substance,measurement,value
streptavidin (from UniProt P22629 25-183) (natural protein),surface density,28 ng/cm^2
